# Measured values: the supplement of paper PMC5998384
# Columns and labels:
# HeLa Kyoto [1] = experiment: melting temperature (median over replicates), in situ; higher = more thermally stable
# HeLa Kyoto [2] = experiment: solubility in G1/S (NP-40 vs SDS abundance) (log2 ratio); higher = more soluble; conditions: cell cycle stage: G1/S
# HeLa Kyoto [3] = experiment: solubility change mitosis vs G1/S (difference of NP-40 vs SDS log2 ratios) (log2 ratio difference); higher = more soluble in mitosis
# HeLa Kyoto [4] = experiment: thermal stability score vs G1/S (z-score of summed log2 fold changes over temperatures); higher = more thermally stable than in G1/S
# [5] = cell cycle stage: early G1 (4.5 h after nocodazole release)
# 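Throughout, for melting temperature (median over replicates), in situ: HeLa Kyoto cells synchronized by double thymidine or nocodazole block, proteins quantified by TMT10plex mass spectrometry, three independent biological replicates.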
# 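Throughout, for solubility change mitosis vs G1/S (difference of NP-40 vs SDS log2 ratios): synchronized HeLa Kyoto cells (double thymidine block for G1/S, nocodazole release for mitosis), protein amounts in NP-40 versus SDS lysates quantified by mass spectrometry, three biological replicates.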
# 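Throughout, for solubility in G1/S (NP-40 vs SDS abundance): HeLa Kyoto cells arrested at G1/S by double thymidine block, proteins quantified by TMT10plex mass spectrometry in mild NP-40 versus SDS extracts, three biological replicates.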
# 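Throughout, for thermal stability score vs G1/S (z-score of summed log2 fold changes over temperatures): synchronized HeLa Kyoto cells, proteins quantified by TMT10plex mass spectrometry, three biological replicates, mitosis taken 0.5 h after nocodazole release, G1/S directly after double thymidine block.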
Substance,melting temperature (HeLa Kyoto [1]; cell cycle stage: G1/S) [°C],melting temperature (HeLa Kyoto [1]; cell cycle stage: mitosis) [°C],solubility in G1/S (log2) (HeLa Kyoto [2]),solubility change mitosis (log2) (HeLa Kyoto [3]),thermal stability score (HeLa Kyoto [4]; [5]),thermal stability score (HeLa Kyoto [4]; cell cycle stage: mitosis)
MAKTYDYLFKLLLIGDSGVGKTCLLFRFSEDAFNTTFISTIGIDFKIRTIELDGKKIKLQIWDTAGQERFRTITTAYYRGAMGIMLVYDITNEKSFDNIKNWIRNIEEHASSDVERMILGNKCDMNDKRQVSKERGEKLAIDYGIKFLETSAKSSANVEEAFFTLARDIMTKLNRKMNDSNSAGAGGPVKITENRSKKTSFFRCSLL [RAB8B],55.9,54,-0.16,-0.0727,1.55,0.563
MDPSDFPSPFDPLTLPEKPLAGDLPVDMEFGEDLLESQTAPTRGWAPPGPSPSSGALDLLDTPAGLEKDPGVLDGATELLGLGGLLYKAPSPPEVDHGPEGTLAWDAGDQTLEPGPGGQTPEVVPPDPGAGANSCSPEGLLEPLAPDSPITLQSPHIEEEETTSIATARRGSPGQEEELPQGQPQSPNAPPSPSVGETLGDGINSSQTKPGGSSPPAHPSLPGDGLTAKASEKPPERKRSERVRRAEPPKPEVVDSTESIPVSDEDSDAMVDDPNDEDFVPFRPRRSPRMSLRSSVSQRAGRSAVGTKMTCAHCRTPLQKGQTAYQRKGLPQLFCSSSCLTTFSKKPSGKKTCTFCKKEIWNTKDSVVAQTGSGGSFHEFCTSVCLSLYEAQQQRPIPQSGDPADATRCSICQKTGEVLHEVSNGSVVHRLCSDSCFSKFRANKGLKTNCCDQCGAYIYTKTGSPGPELLFHEGQQKRFCNTTCLGAYKKKNTRVYPCVWCKTLCKNFEMLSHVDRNGKTSLFCSLCCTTSYKVKQAGLTGPPRPCSFCRRSLSDPCYYNKVDRTVYQFCSPSCWTKFQRTSPEGGIHLSCHYCHSLFSGKPEVLDWQDQVFQFCCRDCCEDFKRLRGVVSQCEHCRQEKLLHEKLRFSGVEKSFCSEGCVLLYKQDFTKKLGLCCITCTYCSQTCQRGVTEQLDGSTWDFCSEDCKSKYLLWYCKAARCHACKRQGKLLETIHWRGQIRHFCNQQCLLRFYSQQNQPNLDTQSGPESLLNSQSPESKPQTPSQTKVENSNTVRTPEENGNLGKIPVKTRSAPTAPTPPPPPPPATPRKNKAAMCKPLMQNRGVSCKVEMKSKGSQTEEWKPQVIVLPIPVPIFVPVPMHLYCQKVPVPFSMPIPVPVPMFLPTTLESTDKIVETIEELKVKIPSNPLEADILAMAEMIAEAEELDKASSDLCDLVSNQSAEGLLEDCDLFGPARDDVLAMAVKMANVLDEPGQDLEADFPKNPLDINPSVDFLFDCGLVGPEDVSTEQDLPRTMRKGQKRLVLSESCSRDSMSSQPSCTGLNYSYGVNAWKCWVQSKYANGETSKGDELRFGPKPMRIKEDILACSAAELNYGLAQFVREITRPNGERYEPDSIYYLCLGIQQYLLENNRMVNIFTDLYYLTFVQELNKSLSTWQPTLLPNNTVFSRVEEEHLWECKQLGVYSPFVLLNTLMFFNTKFFGLQTAEEHMQLSFTNVVRQSRKCTTPRGTTKVVSIRYYAPVRQRKGRDTGPGKRKREDEAPILEQRENRMNPLRCPVKFYEFYLSKCPESLRTRNDVFYLQPERSCIAESPLWYSVIPMDRSMLESMLNRILAVREIYEELGRPGEEDLD [ZMYM3],49.3,50.6,-0.523,0.169,0.311,1.4
MELFLAGRRVLVTGAGKGIGRGTVQALHATGARVVAVSRTQADLDSLVRECPGIEPVCVDLGDWEATERALGSVGPVDLLVNNAAVALLQPFLEVTKEAFDRSFEVNLRAVIQVSQIVARGLIARGVPGAIVNVSSQCSQRAVTNHSVYCSTKGALDMLTKVMALELGPHKIRVNAVNPTVVMTSMGQATWSDPHKAKTMLNRIPLGKFAEVEHVVNAILFLLSDRSGMTTGSTLPVEGGFWAC [DCXR],57.7,55.7,0.282,-0.0268,-1.92,-1.77
MSDSGEQNYGERESRSASRSGSAHGSGKSARHTPARSRSKEDSRRSRSKSRSRSESRSRSRRSSRRHYTRSRSRSRSHRRSRSRSYSRDYRRRHSHSHSPMSTRRRHVGNRANPDPNCCLGVFGLSLYTTERDLREVFSKYGPIADVSIVYDQQSRRSRGFAFVYFENVDDAKEAKERANGMELDGRRIRVDFSITKRPHTPTPGIYMGRPTYGSSRRRDYYDRGYDRGYDDRDYYSRSYRGGGGGGGGWRAAQDRDQIYRRRSPSPYYSRGGYRSRSRSRSYSPRRY [TRA2B],49.9,49.8,-1.17,0.613,-1.69,-4.47
MSAIQAAWPSGTECIAKYNFHGTAEQDLPFCKGDVLTIVAVTKDPNWYKAKNKVGREGIIPANYVQKREGVKAGTKLSLMPWFHGKITREQAERLLYPPETGLFLVRESTNYPGDYTLCVSCDGKVEHYRIMYHASKLSIDEEVYFENLMQLVEHYTSDADGLCTRLIKPKVMEGTVAAQDEFYRSGWALNMKELKLLQTIGKGEFGDVMLGDYRGNKVAVKCIKNDATAQAFLAEASVMTQLRHSNLVQLLGVIVEEKGGLYIVTEYMAKGSLVDYLRSRGRSVLGGDCLLKFSLDVCEAMEYLEGNNFVHRDLAARNVLVSEDNVAKVSDFGLTKEASSTQDTGKLPVKWTAPEALREKKFSTKSDVWSFGILLWEIYSFGRVPYPRIPLKDVVPRVEKGYKMDAPDGCPPAVYEVMKNCWHLDAAMRPSFLQLREQLEHIKTHELHL [CSK],49.3,49.8,0.0872,-0.139,-0.12,0.74
MAGAATQASLESAPRIMRLVAECSRSRARAGELWLPHGTVATPVFMPVGTQATMKGITTEQLDALGCRICLGNTYHLGLRPGPELIQKANGLHGFMNWPHNLLTDSGGFQMVSLVSLSEVTEEGVRFRSPYDGNETLLSPEKSVQIQNALGSDIIMQLDDVVSSTVTGPRVEEAMYRSIRWLDRCIAAHQRPDKQNLFAIIQGGLDADLRATCLEEMTKRDVPGFAIGGLSGGESKSQFWRMVALSTSRLPKDKPRYLMGVGYATDLVVCVALGCDMFDCVFPTRTARFGSALVPTGNLQLRKKVFEKDFGPIDPECTCPTCQKHSRAFLHALLHSDNTAALHHLTVHNIAYQLQLMSAVRTSIVEKRFPDFVRDFMGAMYGDPTLCPTWATDALASVGITLG [QTRT1],55.6,54.9,0.174,-0.0923,1.96,0.0564
MVEDELALFDKSINEFWNKFKSTDTSCQMAGLRDTYKDSIKAFAEKLSVKLKEEERMVEMFLEYQNQISRQNKLIQEKKDNLLKLIAEVKGKKQELEVLTANIQDLKEEYSRKKETISTANKANAERLKRLQKSADLYKDRLGLEIRKIYGEKLQFIFTNIDPKNPESPFMFSLHLNEARDYEVSDSAPHLEGLAEFQENVRKTNNFSAFLANVRKAFTATVYN [SPC25],49.5,49.6,0.585,0.0937,-0.881,-0.275
MLLLAAAFLVAFVLLLYMVSPLISPKPLALPGAHVVVTGGSSGIGKCIAIECYKQGAFITLVARNEDKLLQAKKEIEMHSINDKQVVLCISVDVSQDYNQVENVIKQAQEKLGPVDMLVNCAGMAVSGKFEDLEVSTFERLMSINYLGSVYPSRAVITTMKERRVGRIVFVSSQAGQLGLFGFTAYSASKFAIRGLAEALQMEVKPYNVYITVAYPPDTDTPGFAEENRTKPLETRLISETTSVCKPEQVAKQIVKDAIQGNFNSSLGSDGYMLSALTCGMAPVTSITEGLQQVVTMGLFRTIALFYLGSFDSIVRRCMMQREKSENADKTA [KDSR],60,57.9,-0.701,-0.0925,-2.49,-3.38
MAPHDPGSLTTLVPWAAALLLALGVERALALPEICTQCPGSVQNLSKVAFYCKTTRELMLHARCCLNQKGTILGLDLQNCSLEDPGPNFHQAHTTVIIDLQANPLKGDLANTFRGFTQLQTLILPQHVNCPGGINAWNTITSYIDNQICQGQKNLCNNTGDPEMCPENGSCVPDGPGLLQCVCADGFHGYKCMRQGSFSLLMFFGILGATTLSVSILLWATQRRKAKTS [ATRAID],53.9,54.8,-0.19,0.252,0.782,0.854
DST,49.1,49.2,-0.363,0.045,0.147,1.16
MKSLSLLLAVALGLATAVSAGPAVIECWFVEDASGKGLAKRPGALLLRQGPGEPPPRPDLDPELYLSVHDPAGALQAAFRRYPRGAPAPHCEMSRFVPLPASAKWASGLTPAQNCPRALDGAWLMVSISSPVLSLSSLLRPQPEPQQEPVLITMATVVLTVLTHTPAPRVRLGQDALLDLSFAYMPPTSEAASSLAPGPPPFGLEWRRQHLGKGHLLLAATPGLNGQMPAAQEGAVAFAAWDDDEPWGPWTGNGTFWLPTVQPFQEGTYLATIHLPYLQGQVTLELAVYKPPKVSLMPATLARAAPGEAPPELLCLVSHFYPSGGLEVEWELRGGPGGRSQKAEGQRWLSALRHHSDGSVSLSGHLQPPPVTTEQHGARYACRIHHPSLPASGRSAEVTLEVAGLSGPSLEDSVGLFLSAFLLLGLFKALGWAAVYLSTCKDSKKKAE [TAPBP],52.5,53,0.297,0.000151,0.903,1.98
MSGQRVDVKVVMLGKEYVGKTSLVERYVHDRFLVGPYQNTIGAAFVAKVMSVGDRTVTLGIWDTAGSERYEAMSRIYYRGAKAAIVCYDLTDSSSFERAKFWVKELRSLEEGCQIYLCGTKSDLLEEDRRRRRVDFHDVQDYADNIKAQLFETSSKTGQSVDELFQKVAEDYVSVAAFQVMTEDKGVDLGQKPNPYFYSCCHH [RAB24],53.8,54.2,-0.101,-0.172,-0.25,-0.316
MFSFNMFDHPIPRVFQNRFSTQYRCFSVSMLAGPNDRSDVEKGGKIIMPPSALDQLSRLNITYPMLFKLTNKNSDRMTHCGVLEFVADEGICYLPHWMMQNLLLEEGGLVQVESVNLQVATYSKFQPQSPDFLDITNPKAVLENALRNFACLTTGDVIAINYNEKIYELRVMETKPDKAVSIIECDMNVDFDAPLGYKEPERQVQHEESTEGEADHSGYAGELGFRAFSGSGNRLDGKKKGVEPSPSPIKPGDIKRGIPNYEFKLGKITFIRNSRPLVKKVEEDEAGGRFVAFSGEGQSLRKKGRKP [UFD1L],54.2,54.3,0.0333,-0.123,0.171,-0.639
MGRRRAPELYRAPFPLYALQVDPSTGLLIAAGGGGAAKTGIKNGVHFLQLELINGRLSASLLHSHDTETRATMNLALAGDILAAGQDAHCQLLRFQAHQQQGNKAEKAGSKEQGPRQRKGAAPAEKKCGAETQHEGLELRVENLQAVQTDFSSDPLQKVVCFNHDNTLLATGGTDGYVRVWKVPSLEKVLEFKAHEGEIEDLALGPDGKLVTVGRDLKASVWQKDQLVTQLHWQENGPTFSSTPYRYQACRFGQVPDQPAGLRLFTVQIPHKRLRQPPPCYLTAWDGSNFLPLRTKSCGHEVVSCLDVSESGTFLGLGTVTGSVAIYIAFSLQCLYYVREAHGIVVTDVAFLPEKGRGPELLGSHETALFSVAVDSRCQLHLLPSRRSVPVWLLLLLCVGLIIVTILLLQSAFPGFL [PREB],53.8,54.1,-0.0601,-0.103,-0.808,-1.93
MDGEEKTYGGCEGPDAMYVKLISSDGHEFIVKREHALTSGTIKAMLSGPGQFAENETNEVNFREIPSHVLSKVCMYFTYKVRYTNSSTEIPEFPIAPEIALELLMAANFLDC [TCEB1],52.2,52.3,0.256,-0.0906,-1.38,-1.62
MGAQLSTLGHMVLFPVWFLYSLLMKLFQRSTPAITLESPDIKYPLRLIDREIISHDTRRFRFALPSPQHILGLPVGQHIYLSARIDGNLVVRPYTPISSDDDKGFVDLVIKVYFKDTHPKFPAGGKMSQYLESMQIGDTIEFRGPSGLLVYQGKGKFAIRPDKKSNPIIRTVKSVGMIAGGTGITPMLQVIRAIMKDPDDHTVCHLLFANQTEKDILLRPELEELRNKHSARFKLWYTLDRAPEAWDYGQGFVNEEMIRDHLPPPEEEPLVLMCGPPPMIQYACLPNLDHVGHPTERCFVF [CYB5R3],56,55.8,-0.215,-0.158,-1.92,-2.76
PLXNA1,53.8,52.5,-0.0498,0.0188,-1.69,-1.65
DOCK1,50.7,50,-0.195,-0.0711,0.388,0.518
